Measurements from patent US20080182249A1, “Expression systems for mammalian and mycobacterial desaturases” (priority 2006, published 2008).
Several values for one entry are separate records, joined by “and”; a condition that tells them apart may be missing. Equal entries are not always repeated.

T1: mSCD1 (Mus musculus, UniProt P13516)
T1 construct: 6xHis (from pYES-DEST52) (C); made in house; host or cells: mSCD1: Saccharomyces cerevisiae (OLE1-deficient strain L8-14C), used as microsomes; cyt b5 and cyt b5 reductase: Escherichia coli
T1 sequence (P13516 1-355): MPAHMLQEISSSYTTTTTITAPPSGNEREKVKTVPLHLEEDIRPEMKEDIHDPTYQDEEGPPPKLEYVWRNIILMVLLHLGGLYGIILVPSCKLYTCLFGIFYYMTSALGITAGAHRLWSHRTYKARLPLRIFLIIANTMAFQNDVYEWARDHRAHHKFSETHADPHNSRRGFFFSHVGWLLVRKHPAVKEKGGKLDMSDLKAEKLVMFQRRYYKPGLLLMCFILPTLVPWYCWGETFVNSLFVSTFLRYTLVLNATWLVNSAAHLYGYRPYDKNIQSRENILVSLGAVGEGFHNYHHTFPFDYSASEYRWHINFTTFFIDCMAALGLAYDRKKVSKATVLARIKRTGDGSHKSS

B1: mSCD1 only: recombinant mSCD1 prepared as yeast microsomes, no exogenous cyt b5 or reductase (protein, UniProt P13516 1-355, looked up)
Acyl-CoA desaturase 1: T1 sequence (P13516 1-355)
modifications: yeast microsomes
notes: recombinant mSCD1 prepared as yeast microsomes, no exogenous cyt b5 or reductase
B2: mSCD4: mouse stearoyl-CoA desaturase isoform 4, cloned from heart, expressed in yeast (protein, UniProt Q6T707 1-353, looked up)
Stearoyl-CoA desaturase 4: MTAHLPQEISSRCSTTNIMEPHSRRQQDGEEKMPLQAEDIRPEIKDDLYDPSYQDEEGPPPKLEYVWRNIIFMALLHVGALYGITLVPSCKVYTWLLGVFYNVVAGLGITAGAHRLWSHRTYKARLPLRIFLIMANTMAFQNDVYEWARDHRAHHKFSETHADPHNSRRGFFFSHVGWLLVRKHPAVKEKGKNLDMSDLKAEKLVMFQRRYYKLAVTLMFIILPTLVPWYLWGETFQHSLCVSNFLRYAVLLNFTWLVNSAAHLYGYRPYDRGIGARENPFVSMASLGEGFHNYHHTFPYDYSVSEYRWHINFTTFFIDCMAALGLAYDRKKVSKAVVLARIKRTGDGSHKSS
B3: hSCD1-wt: human SCD1 wild-type construct expressed in yeast L8-14C (protein, UniProt O00767 1-359, looked up)
Stearoyl-CoA desaturase: MPAHLLQDDISSSYTTTTTITAPPSRVLQNGGDKLETMPLYLEDDIRPDIKDDIYDPTYKDKEGPSPKVEYVWRNIILMSLLHLGALYGITLIPTCKFYTWLWGVFYYFVSALGITAGAHRLWSHRSYKARLPLRLFLIIANTMAFQNDVYEWARDHRAHHKFSETHADPHNSRRGFFFSHVGWLLVRKHPAVKEKGSTLDLSDLEAEKLVMFQRRYYKPGLLMMCFILPTLVPWYFWGETFQNSVFVATFLRYAVVLNATWLVNSAAHLFGYRPYDKNISPRENILVSLGAVGEGFHNYHHSFPYDYSASEYRWHINFTTFFIDCMAALGLAYDRKKVSKAAILARIKRTGDGNYKSG
B4: hSCD5-wt: human SCD5 wild-type construct expressed in yeast L8-14C (protein, UniProt Q86SK9 1-330, looked up)
Stearoyl-CoA desaturase 5: MPGPATDAGKIPFCDAKEEIRAGLESSEGGGGPERPGARGQRQNIVWRNVVLMSLLHLGAVYSLVLIPKAKPLTLLWAYFCFLLAALGVTAGAHRLWSHRSYRAKLPLRIFLAVANSMAFQNDIFEWSRDHRAHHKYSETDADPHNARRGFFFSHIGWLFVRKHRDVIEKGRKLDVTDLLADPVVRIQRKYYKISVVLMCFVVPTLVPWYIWGESLWNSYFLASILRYTISLNISWLVNSAAHMYGNRPYDKHISPRQNPLVALGAIGEGFHNYHHTFPFDYSASEFGLNFNPTTWFIDFMCWLGLATDRKRATKPMIEARKARTGDSSA
B5: hSCD5-6xH: human SCD5 construct with 6xHis tag expressed in yeast L8-14C (protein, UniProt Q86SK9 1-330, looked up)
Stearoyl-CoA desaturase 5: B4 Stearoyl-CoA desaturase 5
modifications: C-terminal 6xHis tag
notes: human SCD5 construct with 6xHis tag expressed in yeast L8-14C

Assays:
mSCD1 = target: T1, mSCD1; experiment: Conversion of [14C]-18:0-CoA to [14C]-18:1-CoA by reconstituted complexes of recombinant mSCD1 with cyt b5 and cyt b5 reductase; assay type: biochemical
[1] = system: OLE1 deficient yeast strain L8-14C; assay type: cell-based, Saccharomyces cerevisiae; conditions: galactose minimal medium without unsaturated fatty acids, plus grades not defined
transgenic L8-14C = experiment: Fatty acid profile of transgenic L8-14C expressing human SCD constructs; assay type: cell-based, Saccharomyces cerevisiae; conditions: for 16:0 / 16:1 / 18:0 / 18:1: percentage of total C16 and C18 fatty acids detected

Molecule | % conversion (mSCD1; 18:0-CoA to 18:1-CoA, single trial of duplicate) | Correction by subtraction of background (mSCD1; average conversion minus background) | average conversion (mSCD1; mean of duplicate trials) | cpm 18:1-CoA (mSCD1; single trial of duplicate) | total cpm (mSCD1; single trial of duplicate) | cpm 18:0-CoA (mSCD1; single trial of duplicate, mSCD1 yeast microsomes, cyt b5 and cyt b5 reductase from E. coli) | In vivo activity [1] | Ratio 18:1/16:1 (transgenic L8-14C) | 16:0 (transgenic L8-14C) | 16:1 (transgenic L8-14C) | 18:0 (transgenic L8-14C) | 18:1 (transgenic L8-14C)
B1 | 5.40% and 5.55% | 3.47% | 5.48% | 1626 cpm and 1743 cpm | 30,094 cpm and 31,416 cpm | 28,468 cpm and 29,673 cpm |  |  |  |  |  | 
B2 |  |  |  |  |  |  | Not active |  |  |  |  | 
B3 |  |  |  |  |  |  |  | 0.63 | 61.87 percentage | 23.22 percentage | 9.40 percentage | 14.65 percentage
B4 |  |  |  |  |  |  |  | 3.39 | 45.032 percentage | 8.90 percentage | 7.73 percentage | 30.20 percentage
B5 |  |  |  |  |  |  |  | 3.73 | 56.64 percentage | 6.70 percentage | 10.79 percentage | 25.70 percentage
